Measured values taken from patent US20190031762A1, “POSTERIOR OCULAR FIBROSIS INHIBITION BY ANTAGONIZING PLACENTAL GROWTH FACTOR” (THROMBOGENICS NV, priority 2016, published 2019).
“Also recorded” adds a separate entry of the source.

Key:
[1] = test system: age-related macular edema (AMD); settings: in vivo; cited from earlier work
[2] = test system: retinal pigment epithelium (RPE) cell; settings: Julien et al., Br J Ophthalmol 2014; cited from earlier work
[3] = test system: mouse CNV model; assay: Posterior ocular collagen deposition (Col1a staining) in laser-induced CNV mouse model; format: in vivo; settings: for reduction in collagen deposition (Col1a): IVT D0, 4, 10 and 20
Experimental: (§1) Mice (C57BL/6J, male, 8-10 weeks old) were anesthetized by intraperitoneal injection (135 μL) of a mixture of ketamine hydrochloride (Anesketin; […]) and medetomidine (Domitor; 1 mg/mL) and their pupils dilated with one eye drop (50 μL) Tropicamide (Tropicol™; 5 mg/mL; Thea, Research Papers Clermont-Ferrand, France). Three laser burns were placed in one eye with a green laser at the 9, 12, 3 o'clock positions around the optic disk using a slit lamp delivery system with a hand-held cover slide as a contact lens moisturized with Genteal Gel™ (Novartis, Vilvoorde, Belgium). Each spot was placed with a spot size of 100 μm, laser duration of a 50 milliseconds and a power of 320 mW. […] Finally, 300 μL atipamezole (Antisedan; 5 mg/mL) was injected intraperitoneally to reverse the effect of medetomidine and to reduce sedation time.
(§2) At different time points after lasering, the compounds were administered intravitreally (IVT). The animal was anesthetized with a mixture of ketamine hydrochloride/medetomidine and the eye was treated with a drop of 0.4% oxybuprocaine (Unicaine; Thea Pharma). Intravitreal injections (1 μL) to one eye according to Tables 1 to 3 were performed by using an analytic science syringe (SGE Analytic Science) and glass capillaries with a diameter of 50-70 μm at the end, controlled by the UMP3I Microsyringe Injector and Micro4 Controller (all from World Precision Instruments Inc., Hertfordshire, UK). Finally, atipamezole (Antisedan) was injected intraperitoneally to reverse the effect of medetomidine and to reduce sedation time.
(§3) To analyze the in vivo efficacy of the different compounds, the retina was removed from the dissected posterior segments. These posterior eye cups, which included retinal pigment epithelium (RPE), the choroid and the sclera were stored in phosphate buffered saline (PBS).
To stain for the presence of collagen type 1 (Colla) protein in the laser spots at day 30 after laser, a rabbit anti-collagen antibody (Abcam, 1/270) was used overnight, diluted in Tris-buffered saline (TBS)-Triton 0.5% (v/v) at 4° C. The following day, the tissues were incubated for 2 hours with goat anti rabbit IgG Alexa Fluor 555 (Life Technologies; A-21428), diluted 1/100 in TBS-Triton 0.3% (v/v) at 4° C. The flat mounts of the posterior eye cups were mounted with Prolong Gold with 4′,6-diamidino-2-phenylindole (DAPI, Molecular Probes). Images were obtained using a microscope with a digital camera (Axiocam MrC5; Carl Zeiss, Oberkochen, Germany) at a magnification factor of 20. Morphometric analyses were performed using commercial software (Axiovision; Zeiss, Oberkochen, Germany). The density of collagen deposition was determined by calculating the Colla-positive area as a proportion of the total lesion.
(§4) The mouse CNV model as described in Example 2.1 was used. At different time points after lasering, compounds were administered intraperitoneally (IP), or intravitreally (IVT), as indicated in Table 3.

[4] = test system: mouse CNV model; assay: Macrophage infiltration (F4/80 staining) in laser-induced CNV mouse model; format: in vivo; settings: day 5 after lasering; IVT D0; compared to IgG; dose not stated
Experimental: as §1
At different time points after lasering, the compounds were administered intravitreally (IVT). The animal was anesthetized with a mixture of ketamine hydrochloride/medetomidine and the eye was treated with a drop of 0.4% oxybuprocaine (Unicaine; Thea Pharma). […]

[5] = test system: mouse CNV model; assay: Leukocyte infiltration (CD45 staining) in laser-induced CNV mouse model; format: in vivo
Experimental: as §1, §2, §3
On day 5 after lasering, a rat anti-mouse CD45 and F4/80 antibody ( 1/100; Pharmingen, Erembodegem, Belgium) was used overnight to stain all leukocytes and macrophages, respectively, diluted in Tris-buffered saline (TBS)-Triton 0.3% (v/v). The following day, the tissues were incubated for 2 hours with rabbit anti-rat biotin labeled antibody ( 1/300; DakoCytomation A/S, Copenhagen, Denmark), diluted in TBS-Triton 0.3%. Antibody binding was visualized by fluorescent staining using streptavidin-Alexa-568 ( 1/200; Molecular Probes, Life Technologies, Eugene, Oreg., USA) in TBS-Triton 0.3% for 2 hours. The flatmounts of the posterior eye cups were mounted with Prolong Gold with 4′,6-diamidino-2-phenylindole (DAPI, Molecular Probes). Images were obtained using a microscope with a digital camera
(Axiocam MrC5; Carl Zeiss, Oberkochen, Germany) at a magnification of 20×. Morphometric analyses were performed using commercial software (Axiovision; Zeiss, Oberkochen, Germany). The density of inflammation was determined by calculating the CD45-positive area as a proportion of the total lesion.

[6] = test system: retinal ganglion cells (RGCs); settings: mouse, in vivo, ip, 25 mg/kg
Experimental: To investigate the safety of anti-PlGF and anti-VEGF-R2 on the retinal ganglion cell layer, naive mice (C75Bl/6 or Swiss mice) were injected with 25 mg/kg of anti-PlGF, anti-VEGF-R2 or control IgG 3 times a week for 6 weeks. Afterwards the mice were sacrificed and immunohistochemistry for the neuronal marker NeuN was performed. The samples were incubated overnight with the primary mouse anti-NeuN (Chemicon MAB377) 1/500. As secondary antibody, rabbit anti-mouse biotin-labeled 1/400 (Dako E0646) was added for 45 minutes. Subsequently, the sections were incubated with Streptavidin-HRP 1/100 in TNB for 30 minutes, followed by amplification with Biotin (kit NEL700) 1/50 in amplification buffer for 8 minutes and again incubated with Streptavidin-HRP 1/100 for 30 minutes (all from Perkin Elmer, Life Sciences). Hereafter, a 3,3-diaminobenzidine (DAB) staining (Fluka-Sigma Aldrich) was performed by adding peroxide to the tissue and a counterstaining was done with Harris hematoxylin (Merck). Viable RGCs were quantified 2 times on the same serial section on a defined length of the retina (250 μm) on either side of the optic nerve.

[7] = test system: mouse CNV model; assay: Pericyte coverage (αSMA staining) in mouse CNV model; format: in vivo; settings: day 14 after lasering, 25 mg/kg IP 3 times per week
Experimental: as §1, §4
To study pericyte coverage as a marker of vessel maturation, smooth muscle cell actin (SMA) was examined on serial […] paraffin sections. […] The amount of SMA cells present in the lesion was determined by the use of commercial software (Axiovision; Zeiss, Oberkochen, Germany).

[8] = test system: retinal ganglion cells (RGCs); assay: Neuroretinal safety in naive mice: apoptotic cells in ganglion cell layer (TUNEL staining); format: in vivo, mouse; settings: 25 mg/kg IP 3 times per week
Experimental: A TUNEL (terminal deoxynucleotidyl transferase-mediated biotinylated UTP nick end labeling) staining was performed to investigate apoptotic signal. Serial sections were deparaffinized, washed and treated with proteinase K ( 1/500; Qiagen, Venlo, the Netherlands) for 15 minutes. Next, sections are incubated with the TUNEL reaction mixture (In Situ Cell Death Detection Kit, POD; Roche, Mannheim, Germany) at 37° C. for 1 hour. Afterwards, the slides were mounted with Prolong Gold containing DAPI (Molecular Probes). Each section was scanned systematically from the temporal to the nasal or a serrata for fluorescent cells indicative of apoptosis. […]

[9] = day 30, equimolar comparison FIG. 2B: 5D11D4 3.1 μg, DC101 3.1 μg, aflibercept 2.4 μg, TAAC 4 μg, vs IgG
[10] = day 30, repeated IVT, 3.1 μg (FIG. 2A)
[11] = day 5, equimolar comparison FIG. 1B (5D11D4 3.1 μg, aflibercept 2.4 μg)
[12] = repeat experiment (FIG. 4), day 30, 3.1 μg/eye, compared to PBS

Q: Which “patients developing a posterior fibrotic scar” value [1] does the source give for “ranibizumab: antibody fragment binding all VEGF-A isoforms” here?
A: 24.7%

Q: Which “effect on RPE cell death, in words” value [2] does the source give for “aflibercept: multispecific inhibitor capturing VEGF-A, VEGF-B and PlGF; tradename Eylea®, Bayer” here?
A: increase retinal pigment epithelium (RPE) cell death

Q: What about the “effect on collagen deposition, in words” value [3, 9] of the same molecule?
A: no effect; also recorded: did not show any anti-fibrotic effects

Q: And the “effect on collagen deposition, in words” value ([3]; day 30, repeated IVT, 2.4 μg (FIG. 2A))?
A: no effect on collagen deposition

Q: What about the “effect on collagen deposition, in words” value [3, 10] of the same molecule?
A: did not show any anti-fibrotic effects

Q: What about the “effect on collagen deposition, in words” value ([3]; day 30, repeated IVT, 20 μg (FIG. 2A)) of the same molecule?
A: no effect on collagen deposition

Q: What about the “effect on posterior ocular fibrosis, summary statement” value ([3]; laser-induced CNV, dose not stated) of the same molecule?
A: did not reduce posterior ocular fibrosis

Q: What about the “effect on collagen deposition / fibrosis, in words” value ([3]; repeat experiment (FIG. 4), day 30, equimolar amount 2.4 μg/eye, compared to PBS) of the same molecule?
A: did not reduce fibrosis

Q: What about the “decrease of infiltration of macrophages (F4/80)” value [4] of the same molecule?
A: 52%

Q: And the “effect on inflammation in laser-induced CNV, summary statement” value ([5]; comparable reduction at comparable dose, dose not stated)?
A: able to reduce inflammation

Q: What about the “reduction in leukocyte infiltration (CD45)” value (from here on “reduction … (CD45)”) [5, 11] of the same molecule?
A: 50%

Q: What about the “effect on leukocyte infiltration (CD45), in words” value (“effect on leukocyte infiltration” below) ([5]; day 5 after lasering, IVT D0, 2.4 μg, vs IgG (FIG. 1A)) of the same molecule?
A: comparable effects

Q: And the “effect on leukocyte infiltration” value ([5]; day 5 after lasering, IVT D0, 20 μg, vs IgG (FIG. 1A))?
A: comparable effects

Q: What about the “reduction … (CD45)” value ([5]; day 5 after lasering, single IVT D0, 2.4 μg, compared to IgG) of the same molecule?
A: approximately 50%

Q: What about the “reduction … (CD45)” value ([5]; day 5 after lasering, single IVT D0, 20 μg, compared to IgG) of the same molecule?
A: approximately 50%

Q: With “bevacizumab: antibody binding all VEGF-A isoforms” as the molecule, how does the “patients developing a posterior fibrotic scar” value [1] read?
A: 24.7%

B1: 5D11D4: murine anti-murine PlGF-neutralizing antibody; heavy chain SEQ ID NO:12, light chain SEQ ID NO:13 (antibody, listed as Mus musculus, V domains shown)
VH: QVQLQQPGAELVRPGASVKLSCKASGYTFTNYWINWVKQRPGQGLEWIGNIYPSDSFTNYNQKFKDKATLTVDKSSSTAYMHLSSPTSDDSAVYYCTRDYRYDAVYALDYWGQGTSVTVSS
VL: QIVLTQSPAIMSASPGEKVTITCSASSSVSFIHWFQQKPGTSPKLWIYGTSNLASGVPARFSGSGSGTSSSLTISRMEAEDAATYYCQQRSRYPYTFGGGTKLEIK
modifications: VH 5D11D4; VL 5D11D4
Q: For B1, which “RGCs/retinal area versus other treatment groups, in words” value [6] is on record?
A: not significantly different

Q: What about the “effect on RGC density, in words” value [6] of the same molecule?
A: did not induce any alteration

Q: And the “ganglion cell density (RGC/retinal area)” value [6]?
A: 4600 RGC/retinal area

Q: And the “αSMA-positive area versus control IgG, in words” value [7]?
A: increased the αSMA (smooth muscle cell actin) positive area

Q: What about the “increase in pericyte-covered vessels” value ([7]; vs control IgG) of the same molecule?
A: 35%

Q: What about the “effect on collagen deposition, in words” value [3, 9] of the same molecule?
A: delays the process of wound healing; also recorded: decreased collagen deposition

Q: And the “effect on collagen deposition, in words” value ([3]; day 30, repeated IVT, 1.5 μg (FIG. 2A))?
A: decreased collagen deposition

Q: And the “effect on collagen deposition, in words” value [3, 10]?
A: decreased collagen deposition

Q: What about the “reduction in collagen deposition (Col1a)” value ([3]; day 30 after lasering, 1.5 μg, compared to IgG) of the same molecule?
A: 43%

Q: What about the “reduction in collagen deposition (Col1a)” value ([3]; day 30 after lasering, 3.1 μg, compared to IgG) of the same molecule?
A: 44%

Q: What about the “effect on collagen deposition / fibrosis, in words” value [3, 12] of the same molecule?
A: significantly decreased collagen deposition

Q: And the “reduction in collagen deposition (Col1a)” value [3, 12]?
A: 44%

Q: And the “decrease of infiltration of macrophages (F4/80)” value [4]?
A: 48%

Q: What about the “apoptotic cells per retinal area versus control IgG, in words” value ([8]; C57Bl/6 mice, after 6 weeks) of the same molecule?
A: comparable

Q: What about the “apoptotic cells per retinal area in the ganglion cell layer (TUNEL)” value ([8]; C57Bl/6 mice, after 6 weeks, control IgG 16±2) of the same molecule?
A: 20±4 apoptotic cells per retinal area

Q: And the “effect on apoptotic cells / apoptotic rate, in words” value ([8]; Swiss mice (Rd gene))?
A: did not induce any alteration

Q: And the “reduction … (CD45)” value [5, 11]?
A: 50%

Q: What about the “effect on leukocyte infiltration” value ([5]; day 5, equimolar comparison FIG. 1B: 5D11D4 3.1 μg, DC101 3.1 μg, aflibercept 2.4 μg, TAAC 4 μg, vs IgG) of the same molecule?
A: decreased leukocyte infiltration

Q: And the “effect on leukocyte infiltration” value ([5]; day 5 after lasering, IVT D0, 1.5 μg, vs IgG (FIG. 1A))?
A: decreased leukocyte infiltration

Q: And the “effect on leukocyte infiltration” value ([5]; day 5 after lasering, IVT D0, 3.1 μg, vs IgG (FIG. 1A))?
A: decreased leukocyte infiltration

Q: What about the “reduction … (CD45)” value ([5]; day 5 after lasering, single IVT D0, 1.5 μg, compared to IgG) of the same molecule?
A: 36%

Q: And the “reduction … (CD45)” value ([5]; day 5 after lasering, single IVT D0, 3.1 μg, compared to IgG)?
A: 46%
